# Measurements: IntAct's records for PubMed 30190310
# B1: Kelch-like protein 12 (Homo sapiens), Q53G59 (parent)
# chain: MGGIMAPKDIMTNTHAKSILNSMNSLRKSNTLCDVTLRVEQKDFPAHRIVLAACSDYFCAMFTSELSEKGKPYVDIQGLTASTMEILLDFVYTETVHVTVENVQELLPAACLLQLKGVKQACCEFLESQLDPSNCLGIRDFAETHNCVDLMQAAEVFSQKHFPEVVQHEEFILLSQGEVEKLIKCDEIQVDSEEPVFEAVINWVKHAKKEREESLPNLLQYVRMPLLTPRYITDVIDAEPFIRCSLQCRDLVDEAKKFHLRPELRSQMQGPRTRARLGANEVLLVVGGFGSQQSPIDVVEKYDPKTQEWSFLPSITRKRRYVASVSLHDRIYVIGGYDGRSRLSSVECLDYTADEDGVWYSVAPMNVRRGLAGATTLGDMIYVSGGFDGSRRHTSMERYDPNIDQWSMLGDMQTAREGAGLVVASGVIYCLGGYDGLNILNSVEKYDPHTGHWTNVTPMATKRSGAGVALLNDHIYVVGGFDGTAHLSSVEAYNIRTDSWTTVTSMTTPRCYVGATVLRGRLYAIAGYDGNSLLSSIECYDPIIDSWEVVTSMGTQRCDAGVCVLREK
# Variants of: B1
# Settings: with fxl17_human FBXL17, Q9UF56
# Chain of fxl17_human FBXL17, Q9UF56 (Q9UF56 whole entry): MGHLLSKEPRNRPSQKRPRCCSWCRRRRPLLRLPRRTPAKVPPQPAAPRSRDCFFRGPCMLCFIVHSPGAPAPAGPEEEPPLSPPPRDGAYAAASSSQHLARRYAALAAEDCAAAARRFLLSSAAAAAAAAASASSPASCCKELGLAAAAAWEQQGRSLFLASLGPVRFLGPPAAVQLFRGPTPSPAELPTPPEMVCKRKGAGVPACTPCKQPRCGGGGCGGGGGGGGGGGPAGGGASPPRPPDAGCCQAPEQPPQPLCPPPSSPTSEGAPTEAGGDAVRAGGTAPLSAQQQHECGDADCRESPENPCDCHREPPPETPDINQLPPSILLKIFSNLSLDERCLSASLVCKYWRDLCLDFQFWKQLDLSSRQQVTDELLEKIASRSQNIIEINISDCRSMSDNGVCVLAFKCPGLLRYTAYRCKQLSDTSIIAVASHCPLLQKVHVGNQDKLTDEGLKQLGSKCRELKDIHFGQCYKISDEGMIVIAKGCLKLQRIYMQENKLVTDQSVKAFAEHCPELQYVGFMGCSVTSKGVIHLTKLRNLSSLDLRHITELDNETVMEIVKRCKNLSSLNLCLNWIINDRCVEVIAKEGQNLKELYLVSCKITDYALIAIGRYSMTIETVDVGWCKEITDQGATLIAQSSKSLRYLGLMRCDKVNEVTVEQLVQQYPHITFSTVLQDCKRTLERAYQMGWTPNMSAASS
row,Variant,effect of a mutation on the interaction
1,MGGIMAPKDIMTNTHAKSILNSMKSLRKSNTLCDVTLRVEQKDFPAHRIVLAACSDYFCKMFTSELSEKGKPYVDIQGLTASTMEILLDFVYTETVHVTVENVQELLPAACLLQLKGVKQACCEFLESQLDPSNCLGIRDFAETHNCVDLMQAAEVFSQKHFPEVVQHEEFILLSQGEVEKLIKCDEIQVDSEEPVFEAVINWVKHAKKEREESLPNLLQYVRMPLLTPRYITDVIDAEPFIRCSLQCRDLVDEAKKFHLRPELRSQMQGPRTRARLGANEVLLVVGGFGSQQSPIDVVEKYDPKTQEWSFLPSITRKRRYVASVSLHDRIYVIGGYDGRSRLSSVECLDYTADEDGVWYSVAPMNVRRGLAGATTLGDMIYVSGGFDGSRRHTSMERYDPNIDQWSMLGDMQTAREGAGLVVASGVIYCLGGYDGLNILNSVEKYDPHTGHWTNVTPMATKRSGAGVALLNDHIYVVGGFDGTAHLSSVEAYNIRTDSWTTVTSMTTPRCYVGATVLRGRLYAIAGYDGNSLLSSIECYDPIIDSWEVVTSMGTQRCDAGVCVLREK [N24K;A60K],with no effect
2,MGGIMAPKDIMTNTHAKSILNSMNSLDKSNTLCDVTLRVEQKDFPAHRIVLAACSDYFCAMFTSELSEKGKPYVDIQGLTASTMEILLDFVYTETVHVTVENVQELLPAACLLQLKGVKQACCEFLESQLDPSNCLGIRDFAETHNCVDLMQAAEVFSQKHFPEVVQHEEFILLSQGEVEKLIKCDEIQVDSEEPVFEAVINWVKHAKKEREESLPNLLQYVRMPLLTPRYITDVIDAEPFIRCSLQCRDLVDEAKKFHLRPELRSQMQGPRTRARLGANEVLLVVGGFGSQQSPIDVVEKYDPKTQEWSFLPSITRKRRYVASVSLHDRIYVIGGYDGRSRLSSVECLDYTADEDGVWYSVAPMNVRRGLAGATTLGDMIYVSGGFDGSRRHTSMERYDPNIDQWSMLGDMQTAREGAGLVVASGVIYCLGGYDGLNILNSVEKYDPHTGHWTNVTPMATKRSGAGVALLNDHIYVVGGFDGTAHLSSVEAYNIRTDSWTTVTSMTTPRCYVGATVLRGRLYAIAGYDGNSLLSSIECYDPIIDSWEVVTSMGTQRCDAGVCVLREK [R27D],with no effect
3,MGGIMAPKDIMTNTHAKSILNSMNSLAKSNTLCDVTLRVEQKDFPAHRIVLAACSDYFCAMFTSELSEKGKPYVDIQGLTASTMEILLDFVYTETVHVTVENVQELLPAACLLQLKGVKQACCEFLESQLDPSNCLGIRDFAETHNCVDLMQAAEVFSQKHFPEVVQHEEFILLSQGEVEKLIKCDEIQVDSEEPVFEAVINWVKHAKKEREESLPNLLQYVRMPLLTPRYITDVIDAEPFIRCSLQCRDLVDEAKKFHLRPELRSQMQGPRTRARLGANEVLLVVGGFGSQQSPIDVVEKYDPKTQEWSFLPSITRKRRYVASVSLHDRIYVIGGYDGRSRLSSVECLDYTADEDGVWYSVAPMNVRRGLAGATTLGDMIYVSGGFDGSRRHTSMERYDPNIDQWSMLGDMQTAREGAGLVVASGVIYCLGGYDGLNILNSVEKYDPHTGHWTNVTPMATKRSGAGVALLNDHIYVVGGFDGTAHLSSVEAYNIRTDSWTTVTSMTTPRCYVGATVLRGRLYAIAGYDGNSLLSSIECYDPIIDSWEVVTSMGTQRCDAGVCVLREK [R27A],causing an interaction
4,MGGIMAPKDIMTNTHAKSILNSMNSLRKSNTLFDVTLRVEQKDFPAHRIVLAACSDYFCKMFTSELSEKGKPYVDIQGLTASTMEILLDFVYTETVHVTVENVQELLPAACLLQLKGVKQACCEFLESQLDPSNCLGIRDFAETHNCVDLMQAAEVFSQKHFPEVVQHEEFILLSQGEVEKLIKCDEIQVDSEEPVFEAVINWVKHAKKEREESLPNLLQYVRMPLLTPRYITDVIDAEPFIRCSLQCRDLVDEAKKFHLRPELRSQMQGPRTRARLGANEVLLVVGGFGSQQSPIDVVEKYDPKTQEWSFLPSITRKRRYVASVSLHDRIYVIGGYDGRSRLSSVECLDYTADEDGVWYSVAPMNVRRGLAGATTLGDMIYVSGGFDGSRRHTSMERYDPNIDQWSMLGDMQTAREGAGLVVASGVIYCLGGYDGLNILNSVEKYDPHTGHWTNVTPMATKRSGAGVALLNDHIYVVGGFDGTAHLSSVEAYNIRTDSWTTVTSMTTPRCYVGATVLRGRLYAIAGYDGNSLLSSIECYDPIIDSWEVVTSMGTQRCDAGVCVLREK [C33F;A60K],with no effect
5,MGGIMAPKDIMTNTHAKSILNSMNSLRKSNTLCDVTLRVEQKDFPAHRDVLAACSDYFCAMFTSELSEKGKPYVDIQGLTASTMEILLDFVYTETVHVTVENVQELLPAACLLQLKGVKQACCEFLESQLDPSNCLGIRDFAETHNCVDLMQAAEVFSQKHFPEVVQHEEFILLSQGEVEKLIKCDEIQVDSEEPVFEAVINWVKHAKKEREESLPNLLQYVRMPLLTPRYITDVIDAEPFIRCSLQCRDLVDEAKKFHLRPELRSQMQGPRTRARLGANEVLLVVGGFGSQQSPIDVVEKYDPKTQEWSFLPSITRKRRYVASVSLHDRIYVIGGYDGRSRLSSVECLDYTADEDGVWYSVAPMNVRRGLAGATTLGDMIYVSGGFDGSRRHTSMERYDPNIDQWSMLGDMQTAREGAGLVVASGVIYCLGGYDGLNILNSVEKYDPHTGHWTNVTPMATKRSGAGVALLNDHIYVVGGFDGTAHLSSVEAYNIRTDSWTTVTSMTTPRCYVGATVLRGRLYAIAGYDGNSLLSSIECYDPIIDSWEVVTSMGTQRCDAGVCVLREK [I49D],causing an interaction
6,MGGIMAPKDIMTNTHAKSILNSMNSLRKSNTLCDVTLRVEQKDFPAHRAVLAACSDYFCAMFTSELSEKGKPYVDIQGLTASTMEILLDFVYTETVHVTVENVQELLPAACLLQLKGVKQACCEFLESQLDPSNCLGIRDFAETHNCVDLMQAAEVFSQKHFPEVVQHEEFILLSQGEVEKLIKCDEIQVDSEEPVFEAVINWVKHAKKEREESLPNLLQYVRMPLLTPRYITDVIDAEPFIRCSLQCRDLVDEAKKFHLRPELRSQMQGPRTRARLGANEVLLVVGGFGSQQSPIDVVEKYDPKTQEWSFLPSITRKRRYVASVSLHDRIYVIGGYDGRSRLSSVECLDYTADEDGVWYSVAPMNVRRGLAGATTLGDMIYVSGGFDGSRRHTSMERYDPNIDQWSMLGDMQTAREGAGLVVASGVIYCLGGYDGLNILNSVEKYDPHTGHWTNVTPMATKRSGAGVALLNDHIYVVGGFDGTAHLSSVEAYNIRTDSWTTVTSMTTPRCYVGATVLRGRLYAIAGYDGNSLLSSIECYDPIIDSWEVVTSMGTQRCDAGVCVLREK [I49A],causing an interaction
7,MGGIMAPKDIMTNTHAKSILNSMNSLRKSNTLFDVTLRVEQKDFPAHRIVLAACSDYFCAMFTSELSEKGKPYVDIQGLTASTMEILLDFVYTETVHVTVENVQELLPAACLLQLKGVKQACCEFLESQLDPSNCLGIRDFAETHNCVDLMQAAEVFSQKHFPEVVQHEEFILLSQGEVEKLIKCDEIQVDSEEPVFEAVINWVKHAKKEREESLPNLLQYVRMPLLTPRYITDVIDAEPFIRCSLQCRDLVDEAKKFHLRPELRSQMQGPRTRARLGANEVLLVVGGFGSQQSPIDVVEKYDPKTQEWSFLPSITRKRRYVASVSLHDRIYVIGGYDGRSRLSSVECLDYTADEDGVWYSVAPMNVRRGLAGATTLGDMIYVSGGFDGSRRHTSMERYDPNIDQWSMLGDMQTAREGAGLVVASGVIYCLGGYDGLNILNSVEKYDPHTGHWTNVTPMATKRSGAGVALLNDHIYVVGGFDGTAHLSSVEAYNIRTDSWTTVTSMTTPRCYVGATVLRGRLYAIAGYDGNSLLSSIECYDPIIDSWEVVTSMGTQRCDAGVCVLREK [C33F],causing an interaction
8,MGGIMAPKDIMTNTHAKSILNSMNSLAKSNTLCDVTLRVEQKDFPAHRIVLAACSDYFCKMFTSELSEKGKPYVDIQGLTASTMEILLDFVYTETVHVTVENVQELLPAACLLQLKGVKQACCEFLESQLDPSNCLGIRDFAETHNCVDLMQAAEVFSQKHFPEVVQHEEFILLSQGEVEKLIKCDEIQVDSEEPVFEAVINWVKHAKKEREESLPNLLQYVRMPLLTPRYITDVIDAEPFIRCSLQCRDLVDEAKKFHLRPELRSQMQGPRTRARLGANEVLLVVGGFGSQQSPIDVVEKYDPKTQEWSFLPSITRKRRYVASVSLHDRIYVIGGYDGRSRLSSVECLDYTADEDGVWYSVAPMNVRRGLAGATTLGDMIYVSGGFDGSRRHTSMERYDPNIDQWSMLGDMQTAREGAGLVVASGVIYCLGGYDGLNILNSVEKYDPHTGHWTNVTPMATKRSGAGVALLNDHIYVVGGFDGTAHLSSVEAYNIRTDSWTTVTSMTTPRCYVGATVLRGRLYAIAGYDGNSLLSSIECYDPIIDSWEVVTSMGTQRCDAGVCVLREK [R27A;A60K],with no effect
9,MGGIMAPKDIMTNTHAKSILNSMKSLRKSNTLCDVTLRVEQKDFPAHRIVLAACSDYFCAMFTSELSEKGKPYVDIQGLTASTMEILLDFVYTETVHVTVENVQELLPAACLLQLKGVKQACCEFLESQLDPSNCLGIRDFAETHNCVDLMQAAEVFSQKHFPEVVQHEEFILLSQGEVEKLIKCDEIQVDSEEPVFEAVINWVKHAKKEREESLPNLLQYVRMPLLTPRYITDVIDAEPFIRCSLQCRDLVDEAKKFHLRPELRSQMQGPRTRARLGANEVLLVVGGFGSQQSPIDVVEKYDPKTQEWSFLPSITRKRRYVASVSLHDRIYVIGGYDGRSRLSSVECLDYTADEDGVWYSVAPMNVRRGLAGATTLGDMIYVSGGFDGSRRHTSMERYDPNIDQWSMLGDMQTAREGAGLVVASGVIYCLGGYDGLNILNSVEKYDPHTGHWTNVTPMATKRSGAGVALLNDHIYVVGGFDGTAHLSSVEAYNIRTDSWTTVTSMTTPRCYVGATVLRGRLYAIAGYDGNSLLSSIECYDPIIDSWEVVTSMGTQRCDAGVCVLREK [N24K],causing an interaction
10,MGGIMAPKDIMTNTHAKSILNSMNSLRKSNTLCDVTLRVEQKDFPAHRIALAACSDYFCAMFTSELSEKGKPYVDIQGLTASTMEILLDFVYTETVHVTVENVQELLPAACLLQLKGVKQACCEFLESQLDPSNCLGIRDFAETHNCVDLMQAAEVFSQKHFPEVVQHEEFILLSQGEVEKLIKCDEIQVDSEEPVFEAVINWVKHAKKEREESLPNLLQYVRMPLLTPRYITDVIDAEPFIRCSLQCRDLVDEAKKFHLRPELRSQMQGPRTRARLGANEVLLVVGGFGSQQSPIDVVEKYDPKTQEWSFLPSITRKRRYVASVSLHDRIYVIGGYDGRSRLSSVECLDYTADEDGVWYSVAPMNVRRGLAGATTLGDMIYVSGGFDGSRRHTSMERYDPNIDQWSMLGDMQTAREGAGLVVASGVIYCLGGYDGLNILNSVEKYDPHTGHWTNVTPMATKRSGAGVALLNDHIYVVGGFDGTAHLSSVEAYNIRTDSWTTVTSMTTPRCYVGATVLRGRLYAIAGYDGNSLLSSIECYDPIIDSWEVVTSMGTQRCDAGVCVLREK [V50A],causing an interaction

# Variants of: B1
# Settings: with cul3_human CUL3, Q13618
row,Variant,effect of a mutation on the interaction
1,MGGIMAPKDIMTNTHAKSILNSMNSLRKSNTLCDVTLRVEQKDFPAHRIALAACSDYFCAMFTSELSEKGKPYVDIQGLTASTMEILLDFVYTETVHVTVENVQELLPAACLLQLKGVKQACCEFLESQLDPSNCLGIRDFAETHNCVDLMQAAEVFSQKHFPEVVQHEEFILLSQGEVEKLIKCDEIQVDSEEPVFEAVINWVKHAKKEREESLPNLLQYVRMPLLTPRYITDVIDAEPFIRCSLQCRDLVDEAKKFHLRPELRSQMQGPRTRARLGANEVLLVVGGFGSQQSPIDVVEKYDPKTQEWSFLPSITRKRRYVASVSLHDRIYVIGGYDGRSRLSSVECLDYTADEDGVWYSVAPMNVRRGLAGATTLGDMIYVSGGFDGSRRHTSMERYDPNIDQWSMLGDMQTAREGAGLVVASGVIYCLGGYDGLNILNSVEKYDPHTGHWTNVTPMATKRSGAGVALLNDHIYVVGGFDGTAHLSSVEAYNIRTDSWTTVTSMTTPRCYVGATVLRGRLYAIAGYDGNSLLSSIECYDPIIDSWEVVTSMGTQRCDAGVCVLREK [V50A],with no effect
